According to patent US20240392002A1 (EXELIXIS, published 2024):

Columns and labels:
ROR1 Ig-like domain = molecular target: T1, ROR1 Ig-like domain (human, UniProt Q01973 42-147); assay: BLI, IgG1 on biosensor, soluble ROR1 domain
T1 construct: also called Acro Cat. No. RO1-H5221
Description: (§1) To measure binding affinity in ROR binder discovery campaigns, the VL and VH domains identified in the phage screen described above were formatted into a bivalent monospecific native human full-length IgG1 architecture and immobilized to a biosensor on an Octet (Pall ForteBio) biolayer interferometer. Soluble ROR antigens, including the extracellular domains of ROR1 (Acro Cat. No. RO1-H522γ) and ROR2 (Acro Cat. No. R02-H52E5), as well as the individual ROR1 Frizzled (Acro Cat. No. RO1-H5222), Ig-like (Acro Cat. No. RO1-H5221), and Kringle (Acro Cat. No. RO1-H5223) domains, were then added to the system and binding measured.
(§2) ROR binding candidates, formatted in the bivalent monospecific native human full-length IgG1 architecture, were further characterized for binding to ROR1 and/or ROR2. […] ROR binding candidates were also characterized for their binding to specific ROR1 domains.

[1] = molecular target: T2, extracellular domain of human ROR1 (human, UniProt Q01973 30-406); assay: BLI, IgG1 on biosensor, soluble ROR ectodomain
T2 construct: bought protein; biotinylated in the bivalent assay format; also called Acro Cat. No. RO1-H522y
T2 sequence (Q01973 30-406 limits assumed): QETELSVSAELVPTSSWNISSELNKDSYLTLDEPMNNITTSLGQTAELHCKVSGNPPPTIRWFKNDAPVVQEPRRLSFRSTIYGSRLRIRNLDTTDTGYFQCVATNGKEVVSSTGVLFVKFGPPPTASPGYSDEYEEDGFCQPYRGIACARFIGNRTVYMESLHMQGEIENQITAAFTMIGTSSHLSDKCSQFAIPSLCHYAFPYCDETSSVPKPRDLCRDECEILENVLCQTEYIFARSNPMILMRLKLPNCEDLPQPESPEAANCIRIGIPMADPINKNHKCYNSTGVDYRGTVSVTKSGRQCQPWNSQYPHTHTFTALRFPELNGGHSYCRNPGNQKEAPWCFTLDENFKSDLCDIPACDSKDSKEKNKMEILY
Description: as §1, §2

[2] = molecular target: T3, extracellular domain of human ROR2 (human, UniProt Q01974 34-403); assay: BLI, IgG1 on biosensor, soluble ROR ectodomain
T3 construct: bought protein; biotinylated in the bivalent assay format; also called Acro Cat. No. RO2-H52E5
T3 sequence (Q01974 34-403 limits assumed): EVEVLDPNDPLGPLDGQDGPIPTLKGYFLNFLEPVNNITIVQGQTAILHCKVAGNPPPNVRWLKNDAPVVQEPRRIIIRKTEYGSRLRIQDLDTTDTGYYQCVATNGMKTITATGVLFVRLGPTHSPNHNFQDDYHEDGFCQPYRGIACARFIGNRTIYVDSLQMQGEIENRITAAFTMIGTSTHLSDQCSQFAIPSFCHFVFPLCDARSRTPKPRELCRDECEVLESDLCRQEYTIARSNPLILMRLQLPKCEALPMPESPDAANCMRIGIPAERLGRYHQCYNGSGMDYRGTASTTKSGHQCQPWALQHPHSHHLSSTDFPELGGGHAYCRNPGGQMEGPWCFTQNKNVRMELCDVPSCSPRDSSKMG
Description: as §1, §2

T1 sequence (Q01973 42-147): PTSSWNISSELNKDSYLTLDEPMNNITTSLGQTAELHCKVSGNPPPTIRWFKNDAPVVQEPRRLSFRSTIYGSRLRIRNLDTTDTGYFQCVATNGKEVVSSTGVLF

Binder	binding result (ROR1 Ig-like domain)	binding result [1]	binding result [2]
I2A-1 IgG1 (antibody, V domains shown, human IgG1) VH: EVQLVESGGGLVQPGGSLRLSCAASGFTFSSYFIHWVRQAPGKGLEWVAAIYPEGGYTYYADSVKGRFTISADTSKNTAYLQMNSLRAEDTAVYYCARDYKYVGALDYWGQGTLVTVSS VL: DIQMTQSPSSLSASVGDRVTITCRASQSVSSAVAWYQQKPGKAPKLLIYSASSLYSGVPSRFSGSRSGTDFTLTISSLQPEDFATYYCQQYYYFPGTFGQGTKVEIK	binds	binds	binds
I2C-11 IgG1 (antibody, V domains shown, human IgG1) VH: EVQLVESGGGLVQPGGSLRLSCAASGFTFGSYFIHWVRQAPGKGLEWVAAIFPAGGYTYYADSVKGRFTISADTSKNTAYLQMNSLRAEDTAVYYCARYGSMGGAFDYWGQGTLVTVSS VL: DIQMTQSPSSLSASVGDRVTITCRASQSVSSAVAWYQQKPGKAPKLLIYSASSLYSGVPSRFSGSRSGTDFTLTISSLQPEDFATYYCQQYYWFPGTFGQGTKVEIK	binds	binds	binds
I2A-14 IgG1 (antibody, V domains shown, human IgG1) VH: EVQLVESGGGLVQPGGSLRLSCAASGFTFDSYVIHWVRQAPGKGLEWVAYIFSFGGYTYYADSVKGRFTISADTSKNTAYLQMNSLRAEDTAVYYCARSPYGTFALDYWGQGTLVTVSS VL: DIQMTQSPSSLSASVGDRVTITCRASQSVSSAVAWYQQKPGKAPKLLIYSASSLYSGVPSRFSGSRSGTDFTLTISSLQPEDFATYYCQQYYYTPGTFGQGTKVEIK	binds	binds	binds
I2A-16 IgG1 (antibody, V domains shown, human IgG1) VH: EVQLVESGGGLVQPGGSLRLSCAASGFTFSGYFIHWVRQAPGKGLEWVAAIFPYRGGTSYADSVKGRFTISADTSKNTAYLQMNSLRAEDTAVYYCARGGVSPGGFDYWGQGTLVTVSS VL: DIQMTQSPSSLSASVGDRVTITCRASQSVSSAVAWYQQKPGKAPKLLIYSASSLYSGVPSRFSGSRSGTDFTLTISSLQPEDFATYYCQQYYLYPGTFGQGTKVEIK	binds	binds	binds
I2A-20 IgG1 (antibody, V domains shown, human IgG1) VH: EVQLVESGGGLVQPGGSLRLSCAASGFTFSDYGIHWVRQAPGKGLEWVAEIDSWLGYTYYADSVKGRFTISADTSKNTAYLQMNSLRAEDTAVYYCARSPYHYLYYGLDYWGQGTLVTVSS VL: DIQMTQSPSSLSASVGDRVTITCRASQSVSSAVAWYQQKPGKAPKLLIYSASSLYSGVPSRFSGSRSGTDFTLTISSLQPEDFATYYCQQLSSSLGTFGQGTKVEIK	binds	binds	no binding
I2A-22 IgG1 (antibody, V domains shown, human IgG1) VH: EVQLVESGGGLVQPGGSLRLSCAASGFTFSSYFIHWVRQAPGKGLEWVAAIYPSGWYTSYADSVKGRFTISADTSKNTAYLQMNSLRAEDTAVYYCARVQAGVFDYWGQGTLVTVSS VL: DIQMTQSPSSLSASVGDRVTITCRASQSVSSAVAWYQQKPGKAPKLLIYSASSLYSGVPSRFSGSRSGTDFTLTISSLQPEDFATYYCQQYYYYPGTFGQGTKVEIK	binds	binds	binds
I2C-1 IgG1 (antibody, V domains shown, human IgG1) VH: EVQLVESGGGLVQPGGSLRLSCAASGFTFTSYGIHWVRQAPGKGLEWVAAIYPHSGFTSYADSVKGRFTISADTSKNTAYLQMNSLRAEDTAVYYCARTSYRGFDYWGQGTLVTVSS VL: DIQMTQSPSSLSASVGDRVTITCRASQSVSSAVAWYQQKPGKAPKLLIYSASSLYSGVPSRFSGSRSGTDFTLTISSLQPEDFATYYCQQYYWYPGTFGQGTKVEIK	binds	binds	binds
I2A-3 IgG1 (antibody, V domains shown, human IgG1) VH: EVQLVESGGGLVQPGGSLRLSCAASGFTFTSYEIHWVRQAPGKGLEWVAHIDPYGGYTQYADSVKGRFTISADTSKNTAYLQMNSLRAEDTAVYYCARRGVAVFDYWGQGTLVTVSS VL: DIQMTQSPSSLSASVGDRVTITCRASQSVSSAVAWYQQKPGKAPKLLIYSASSLYSGVPSRFSGSRSGTDFTLTISSLQPEDFATYYCQQWAYAPVTFGQGTKVEIK	binds	binds	no binding
I2A-4 IgG1 (antibody, V domains shown, human IgG1) VH: EVQLVESGGGLVQPGGSLRLSCAASGFTFYSYDIHWVRQAPGKGLEWVAYISPYWGITTYADSVKGRFTISADTSKNTAYLQMNSLRAEDTAVYYCARYIGSSYWDALDYWGQGTLVTVSS VL: DIQMTQSPSSLSASVGDRVTITCRASQSVSSAVAWYQQKPGKAPKLLIYSASSLYSGVPSRFSGSRSGTDFTLTISSLQPEDFATYYCQQSDSSLVTFGQGTKVEIK	binds	binds	no binding
I2A-6 IgG1 (antibody, V domains shown, human IgG1) VH: EVQLVESGGGLVQPGGSLRLSCAASGFTFSLYAIHWVRQAPGKGLEWVAEIDSWLGYTYYADSVKGRFTISADTSKNTAYLQMNSLRAEDTAVYYCARRPVTEVYYSALDYWGQGTLVTVSS VL: DIQMTQSPSSLSASVGDRVTITCRASQSVSSAVAWYQQKPGKAPKLLIYSASSLYSGVPSRFSGSRSGTDFTLTISSLQPEDFATYYCQQYDRSLHTFGQGTKVEIK	binds	binds	no binding
I2C-10 IgG1 (antibody, V domains shown, human IgG1) VH: EVQLVESGGGLVQPGGSLRLSCAASGFTFSSYFIHWVRQAPGKGLEWVATIHSYFDGTSYADSVKGRFTISADTSKNTAYLQMNSLRAEDTAVYYCARTRPTGGAFDYWGQGTLVTVSS VL: DIQMTQSPSSLSASVGDRVTITCRASQSVSSAVAWYQQKPGKAPKLLIYSASSLYSGVPSRFSGSRSGTDFTLTISSLQPEDFATYYCQQAYWSPATFGQGTKVEIK	binds	binds	binds
I2C-2 IgG1 (antibody, V domains shown, human IgG1) VH: EVQLVESGGGLVQPGGSLRLSCAASGFTFSDYFIHWVRQAPGKGLEWVAGIYPYSGYTKYADSVKGRFTISADTSKNTAYLQMNSLRAEDTAVYYCARDHSPVLDYWGQGTLVTVSS VL: DIQMTQSPSSLSASVGDRVTITCRASQSVSSAVAWYQQKPGKAPKLLIYSASSLYSGVPSRFSGSRSGTDFTLTISSLQPEDFATYYCQQWYYWPGTFGQGTKVEIK	binds	binds	binds
I2C-4 IgG1 (antibody, V domains shown, human IgG1) VH: EVQLVESGGGLVQPGGSLRLSCAASGFTFWSYFIHWVRQAPGKGLEWVAYIHPSSSYTDYADSVKGRFTISADTSKNTAYLQMNSLRAEDTAVYYCARTSRDGAMDYWGQGTLVTVSS VL: DIQMTQSPSSLSASVGDRVTITCRASQSVSSAVAWYQQKPGKAPKLLIYSASSLYSGVPSRFSGSRSGTDFTLTISSLQPEDFATYYCQQWYSPPETFGQGTKVEIK	binds	binds	binds
I2C-8 IgG1 (antibody, V domains shown, human IgG1; same CDRs as I2A-16; also called 12C-8) VH: EVQLVESGGGLVQPGGSLRLSCAASGFTFSGYFIHWVRQAPGKGLEWVAAIFPYRGGTSYADSVKGRFTISADTSKNTAYLQMNSLRAEDTAVYYCARGGVSPGGFDYWGQGTLVTVSS VL: DIQMTQSPSSLSASVGDRVTITCRASQSVSSAVAWYQQKPGKAPKLLIYSASSLYSGVPSRFSGSRSGTDFTLTISSLQPEDFATYYCQQYYLYPGTFGQGTKVEIK	binds	binds	binds
